From patent publication US20180325119A1 (PIONEER HI BRED INTERNATIONAL, published 2018)
Positions count from the first letter of the chain named.

Assays:
Test in all cases: co-expression in E. coli (pETDuet-1, N-6 His on the -1 fragment, -2 fragment untagged); Ni-NTA purification
[1] = target: T1, IPD082Ic-2, C-terminal fragment of homolog IPD082Ic (Pseudomonas sp. S16-2)
T1 chain: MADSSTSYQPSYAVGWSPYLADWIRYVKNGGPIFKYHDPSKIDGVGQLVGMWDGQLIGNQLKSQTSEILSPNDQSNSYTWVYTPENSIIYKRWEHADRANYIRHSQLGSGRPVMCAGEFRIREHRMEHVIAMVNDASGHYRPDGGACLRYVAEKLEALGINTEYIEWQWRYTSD
Description: (§1) The IPD082Aa gene (SEQ ID NO: 1) was amplified by PCR using genomic DNA isolated from strain SSP446D7 using forward primer […] (SEQ ID NO: 59) and reverse primer […] (SEQ ID NO: 60). The resulting PCR product was DNA sequence verified and subcloned into pET16B vector with an N-terminal His-10 tag, and into pET24a vector with C-terminal His-10 tag or without tag. The plasmid DNA, containing the IPD082Aa gene insert, was transformed into competent C41 E. coli cells for recombinant protein expression. E. coli cells were grown at 37° C. with carbenicillin or kanamycin selection to OD₆₀₀ equal to 0.7-0.8 and then 1 mM ITPG was added and further grown at 16° C. for 16 hours to induce protein expression. The E. coli expressed His-tagged proteins were purified by immobilized metal ion chromatography using Ni-NTA agarose (Qiagen, Germany) according to the manufacturer's protocols. Other IPD082 homologs were expressed in a similar manner except the gene sequences were synthesized.
(§2) The polynucleotides, SEQ ID NO: 33 and SEQ ID NO: 35 respectively, encoding the 38.2 kDa N-terminal fragment (IPD082Aa-1—SEQ ID NO: 34) and 20.5 kDa C-terminal fragment (IPD082Aa-2—SEQ ID NO: 36) of IPD082Aa, were also co-expressed (FIG. 11) in a pETDuet™-1 vector (EMD Millipore, a Life Science business of Merck KGaA, Frankfurter StraBe 250, 64293, Darmstadt, Germany). Similarly polynucleotides encoding the C-terminal fragments of the IPD082 homologs: IPD082Hb-2 (SEQ ID NO: 37); IPD082Ia-2 (SEQ ID NO: 39); IPD082Ic-2 (SEQ ID NO: 41); IPD082Ie-2 (SEQ ID NO: 43); IPD082Ib-2 (SEQ ID NO: 45); IPD082Hd-2 (SEQ ID NO: 47); and IPD082Hc-2 (SEQ ID NO: 49), were cloned as chimeric fusions with IPD082Aa-2 (SEQ ID NO: 35) in the pETDuet™-1 vector containing IPD082Aa-1 polynucleotide (SEQ ID NO: 33).

[2] = target: T2, IPD082Hc-2, C-terminal fragment of homolog IPD082Hc (Pseudomonas corrugata)
T2 chain: T1 chain with Q55K, I68M, L155F, Y164H, T172A
Description: as §1, §2

[3] = target: T3, IPD082Ia-2, C-terminal fragment of homolog IPD082Ia (Pseudomonas monteilii)
T3 chain: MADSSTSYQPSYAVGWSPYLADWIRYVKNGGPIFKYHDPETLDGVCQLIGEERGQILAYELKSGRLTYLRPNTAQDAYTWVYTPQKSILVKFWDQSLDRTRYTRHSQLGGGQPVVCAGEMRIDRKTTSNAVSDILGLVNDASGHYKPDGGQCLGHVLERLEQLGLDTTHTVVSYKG
Description: as §1, §2

[4] = target: T4, IPD082Hd-2, C-terminal fragment of homolog IPD082Hd (Pseudomonas corrugata)
T4 chain: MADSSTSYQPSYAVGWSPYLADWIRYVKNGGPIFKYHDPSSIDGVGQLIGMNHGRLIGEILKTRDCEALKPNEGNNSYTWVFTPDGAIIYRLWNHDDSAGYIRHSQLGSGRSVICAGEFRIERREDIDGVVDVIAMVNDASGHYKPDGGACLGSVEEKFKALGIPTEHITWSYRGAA
Description: as §1, §2

[5] = target: T5, IPD082Ie-2, C-terminal fragment of homolog IPD082Ie (Pseudomonas agarici)
T5 chain: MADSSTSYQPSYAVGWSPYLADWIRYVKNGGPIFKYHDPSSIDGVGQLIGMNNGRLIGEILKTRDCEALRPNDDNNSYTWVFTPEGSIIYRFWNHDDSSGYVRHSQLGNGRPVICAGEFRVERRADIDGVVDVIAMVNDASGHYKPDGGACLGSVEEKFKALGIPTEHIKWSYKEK
Description: as §1, §2

[6] = target: T6, IPD082Ib-2, C-terminal fragment of homolog IPD082Ib (Pseudomonas sp VLB120)
T6 chain: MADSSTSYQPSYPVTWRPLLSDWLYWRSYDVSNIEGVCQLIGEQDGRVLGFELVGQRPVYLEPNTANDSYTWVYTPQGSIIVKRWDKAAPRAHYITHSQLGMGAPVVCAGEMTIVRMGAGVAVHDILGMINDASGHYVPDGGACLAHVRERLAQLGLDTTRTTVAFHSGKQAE
Description: as §1, §2

Measured: binding result

B1: IPD082Aa-1, N-terminal region of IPD082Aa (pETDuet-1 construct, N-6 His) (other)
chain: MQTTVSETLVSGSDPRLQVSMGNETANGRWDNPYAIQFTYSIAGRQFFYGQNLKTHYWFIQELLPGGKMGQETANGRWDNPYAVQFAFSVGGRQFFYGQNLETNYWFIQELLAGGKMGQETANGRWNNPYASQFAFSVGGRQFFYGQNLKTNYWFIQELLAGGKMGQETANGTLDGPFAVQFPFSVGGSQYFYGQNIKDRSWFIKELLAGGKVGKTTASGRWDNAYAVQFAYPAEQYGRQYFYGQNLDTNYWFVQELLPGGAMGEEIMNGRWGNPYATQFAYEQGGISYFYGQNQSSNYWFIQELLSDTEYTVRRLPLLDYSSSTSAAQQSAPGVCL
notes: Co-expressed in pETDuet-1 with untagged C-terminal fragments of IPD082 homologs; not shown: N-terminal 6xHis tag of the pETDuet-1 vector ('N-6 His for -1')
binds: all assays above
